# From patent US20260137799A1, “ANTI-MUC1* ANTIBODY DRUG COMPLEXES AND USES THEREOF” (Minerva Biotechnologies Corporation, priority 2023, published 2026)
# Assays:
# MUC1*45 = MUC1*45 (UniProt P15941 1110-1255); experiment: cell-based or functional assay
# [1] = test system: MUC1* negative HEK-293-TN cells; experiment: Bystander killing of non-target cells; assay type: cell-based
# Procedure: The cell population was doped with H1975-MUC1*45-GFP cells as indicated. FIGS. 31A1-31A20 show the effect of C2-MC-GGFG-AM-DXd (SEQ ID NO: 160) on the non-target cells. […] FIGS. 31C1-31C20 show the effect of C2-MC-VA-PAB-exatecan on the non-target cells.
# FIGS. 33A-33H show graphs of the integrated pixel density of non-target cancer cells as a function of doping cell population with cells expressing high amounts of MUC1*45. FIGS. 33A-33D show the effect when the cells were treated with C2-MC-GGFG-AM-DXd (SEQ ID NO: 160). FIGS. 33E-33H show the effect when the cells were treated with C2-MC-VA-PAB-exatecan.
# In another experiment, we investigated the killing of off-target cells (MUC1* negative HEK-293-TN cells) as well as low antigen expressing target cells (H1975 lung cancer) due to a “bystander” effect (FIGS. 32A1-32D20, FIGS. 33A-33H and FIGS. 34A-34H). To assess the killing of non-target cells adjacent to cells with high MUC1* expression, we doped non-target cells expressing an mCherry marker with varying percentages of target cells that express GFP. 56 nM C2-MC-VA-PAB-exatecan killed nearly all the neighboring non-target cells when the cell population was doped with 30% of the high antigen expressing target cells (FIG. 32C17). […]
# [2] = test system: low MUC1* expressing, mCherry H1975 lung cancer cells; experiment: Bystander killing of low antigen expressing cancer cells; assay type: cell-based, human; settings: 56 nM ADC; population contained 30% high MUC1* expressing H1975-MUC1*-GFP cells
# NCI-H1975 = experiment: xCELLigence impedance cytotoxicity, NCI-H1975; assay type: cell-based, human; settings: Example 9 (FIGS. 35-36); read-out: IC50 for killing of H1975-wt cells
# Procedure: (§1) An xCELLigence RTCA MP Instrument (Agilent) was used to assess real-time killing of target cancer cells). In the xCELLigence system, target cancer cells, which are adherent, are plated onto electrode array 96-well plates. Adherent cells insulate the electrode and increase the impedance. The number of adherent cancer cells is directly proportional to impedance. […] Therefore, increasing impedance reflects the growth of the cancer cells and decreasing impedance reflects the killing of the cancer cells.
# (§2) Target Cancer cells (Table 9) were seeded onto a multi-electrode well plate at a density of 5000 cells/well (100 μL of a 50,000 cells/mL stock) and incubated for 24 hr in a 37° C./5% CO2 incubator. ADCs were prepared as a 2× solution in corresponding growth media and 100 μL of each concentration was added to target cells. As a positive control (100% cell killing) cells were treated with either 1% triton or 1 μM Taxol instead of ADC. After 40-120 hours incubation in a 37° C./5% CO2 incubator cell killing was assessed. In this assay, impedance is measured in real-time. When the adherent cancer cells are killed and come off the electrode surface, impedance (insulation) decreases.
# [3] = test system: H2110-wt lung cancer cell line; experiment: xCELLigence impedance cytotoxicity, H2110; assay type: cell-based, human; settings: Example 9 (FIGS. 35-36); read-out: IC50, lung cancer H2110-wt cells
# Procedure: as §1, §2
# (§3) To directly compare the C2 and 3C2B1 anti-MUC1* antibodies as ADC targeting domains, a panel of MUC1* positive cancer cell lines representing different cancer types were treated with C2-deruxtecan versus 3C2B1-deruxtecan (FIG. 35) or C2-MC-VA-PAB-exatecan versus 3C2B1-MC-VA-PAB-exatecan (FIG. 36). In some cases, the cancer cells were engineered to express high levels of MUC1*45.
# [4] = test system: CFPAC1-wt pancreatic cancer cell line; experiment: xCELLigence impedance cytotoxicity, CFPAC1; assay type: cell-based, human; settings: Example 9 (FIGS. 35-36); read-out: IC50, CFPAC1-wt pancreatic cancer cells
# Procedure: as §1, §2, §3
# T47D = experiment: xCELLigence impedance cytotoxicity, T47D; assay type: cell-based, human; settings: Example 9 (FIGS. 35-36); average over batches for DXd ADCs; read-out: IC50 for killing of breast cancer T47D-wt cells
# How it was run: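 Adherent target cells plated at 5000/well on electrode plates were grown 24 h, then exposed to serially diluted ADCs in growth medium at 37° C/5% CO2. Killing was followed as real-time impedance loss over 40-120 h, normalized to 1% triton or 1 μM Taxol as 100% kill.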
# [5] = test system: breast cancer, pancreatic cancer, and lung cancer cell lines; experiment: Cytotoxicity of ADCs with additional linkers and toxins (FIGS. 30-31); assay type: cell-based; settings: breast cancer, pancreatic cancer, and lung cancer cells
# Procedure: FIG. 30 is a table showing cytotoxicity of the indicated MUC1* ADCs against indicated cancer cells. IC50 values were determined from xCELLigence data. FIG. 30 discloses “GGFG” as SEQ ID NO: 160, “GGGG” as SEQ ID NO: 161, “GGVA” as SEQ ID NO: 162, “GGVG” as SEQ ID NO: 163.
# FIG. 31 is a table showing cytotoxicity of the indicated MUC1* ADCs against indicated cancer cells. IC50 values were determined from PrestoBlue data.
# An anti-MUC1* antibody was conjugated to several toxins via a number of different linkers (compounds VIII-XXII).
# T47D-MUC1* = experiment: xCELLigence impedance cytotoxicity, T47D-MUC1*; assay type: cell-based, human; settings: Example 9 (FIGS. 35-36); read-out: IC50, T47D cells engineered to express more MUC1*45
# Procedure: as §1, §2
molecule,measurement,setting,value
"C2-MC-VA-PAB-exatecan (antibody, mouse IgG1, kappa, MC-VA-PAB-exatecan on reduced cysteine thiols of the antibody, sites not stated; MC-VA-PAB-exatecan on reduced cysteine thiols of the antibody, sites not stated; DAR 5.1) VH: EVQLEESGGGLVKPGGSLKLSCAASGFTFSGYAMSWVRQTPEKRLEWVATISSGGTYIYYPDSVKGRFTISRDNAKNTLYLQMSSLRSEDTAMYYCARLGGDNYYEYFDVWGAGTTVTVSSAKTTPPSVYAKTTPPSVYPLAPGSAAQTNSMVTLGCLVKGYFPEPVTVTWNSGSLSSGVHTFPAVLQSDLYTLSSSVTVPSSTWPSETVTCNVAHPASSTKVDKKIVPRDCGCKPCICTVPEVSSVFIFPPKPKDVLTITLTPKVTCVVVDISKDDPEVQFSWFVDDVEVHTAQTQPREEQFNSTFRSVSELPIMHQDWLNGKEFKCRVNSAAFPAPIEKTISKTKGRPKAPQVYTIPPPKEQMAKDKVSLTCMITDFFPEDITVEWQWNGQPAENYKNTQPIMDTDGSYFVYSKLNVQKSNWEAGNTFTCSVLHEGLHNHHTEKSLSHSPGK VL: DIVITQSTASLGVSLGQRATISCRASKSVSTSGYSYMHWYQQRPGQPPKLLIYLASNLESGVPARFSGSGSGTDFTLNIHPVEEEDAATYYCQHSRELPFTFGGGTKLEIKRADAAPTVSADAAPTVSIFPPSSEQLTSGGASVVCFLNNFYPKDINVKWKIDGSERQNGVLNSWTDQDSKDSTYSMSSTLTLTKDEYERHNSYTCEATHKTSTSPIVKSFNRNEC","IC50, killing of H1975 cells engineered to express MUC1*45 (xCELLigence)",MUC1*45,9 nM
same,killing of neighboring non-target cells,"[1]; 56 nM ADC, population doped with 30% H1975-MUC1*45-GFP target cells, 120 hours",nearly all
same,non-specific cytotoxicity,[1]; pure populations of non-target HEK-293-TN cells,limited amount of non-specific cytotoxicity
same,low MUC1* expressing cancer cells killed,[2],about 75%
same,IC50,NCI-H1975,117 nM
same,IC50,[3],60 nM
same,IC50,[4],51 nM
same,IC50,T47D,44 nM
same,activity compared to deruxtecan ADC,[5],enhanced activity
same,IC50,T47D-MUC1*,4 nM
